The data set concerns the molecule itself. Description: SEC. A general note: Size exclusion chromatography separates by hydrodynamic size, large species first.

B1: Mycobacterium tuberculosis MazG (Mtb-MazG), full-length wild type (enzyme)
chain: MIVVLVDPRRPTLVPVEAIEFLRGEVQYTEEMPVAVPWSLPAARSAHAGNDAPVLLSSDPNHPAVITRLAAGARLISAPDSQRGERLVDAVAMMDKLRTAGPWESEQTHDSLRRYLLEETYELLDAVRSGSVDQLREELGDLLLQVLFHARIAEDASQSPFTIDDVADTLMRKLGNRAPGVLAGESISLEDQLAQWEAAKASEKARKSVADDVHTGQPALALAQKVIQRAQKAGLPAHLIPDEITSVSVSADVDAENTLRTAVLDFIDRLRCAERAIAVARRGSNVAEQLDVTPLGVITEQEWLAHWPTAVNDSRGGSKKRKGMR
notes: also called WT MazG; full-length MazG
Regarding B1, the stoichiometry N (usually the number of molecules, sites or subunits per partner or assembly) stood at 2.

(Values after article PMC10014863, “Structural analysis of the housecleaning nucleoside triphosphate pyrophosphohydrolase MazG from Mycobacterium tuberculosis” (Frontiers in Microbiology, 2023).)
